How the values were obtained:
oxygen electrode = substrate: OC(CS)C(O)CS; experiment: oxygen electrode; format: biochemical, Saccharomyces cerevisiae; conditions: O2 as co-substrate, 50 mM Tris/HCl, 0.3 mM EDTA, pH 7.5, 25 °C
cross-linking = molecular target: the molecule itself; experiment: cross-linking

B1: Erv2p (Saccharomyces cerevisiae S288C) (protein)
chain: MKQIVKRSHAIRIVAALGIIGLWMFFSSNELSIATPGLIKAKSGIDEVQGAAAEKNDARLKEIEKQTIMPLMGDDKVKKEVGRASWKYFHTLLARFPDEPTPEEREKLHTFIGLYAELYPCGECSYHFVKLIEKYPVQTSSRTAAAMWGCHIHNKVNEYLKKDIYDCATILEDYDCGCSDSDGKRVSLEKEAKQHG
Km (oxygen electrode): 7 ± 1 mM | kcat (oxygen electrode): 3.83 ± 0.13 s⁻¹

B2: Erv2p, wild type (enzyme, yeast, UniProt Q12284 1-196, looked up)
chain: PGLIKAKSGIDEVQGAAAEKNDARLKEIEKQTIMPLMGDDKVKKEVGRASWKYFHTLLARFPDEPTPEEREKLHTFIGLYAELYPCGECSYHFVKLIEKYPVQTSSRTAAAMWGCHIHNKVNEYLKKDIYDCATILEDYDCGCSDSDGKRVSLEKEAKQHG
stoichiometry N (cross-linking): 2
